T1: 结核分枝杆菌特异性重组蛋白EspC (Mycobacterium tuberculosis, UniProt P9WJD7 1-103)
T1 sequence (looked up): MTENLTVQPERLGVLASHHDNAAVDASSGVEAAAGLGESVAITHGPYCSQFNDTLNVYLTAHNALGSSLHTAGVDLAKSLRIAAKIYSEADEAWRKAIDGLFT

T2: 结核分枝杆菌特异性重组蛋白CFP10 (Mycobacterium tuberculosis, UniProt P9WNK5 1-100)
T2 sequence (looked up): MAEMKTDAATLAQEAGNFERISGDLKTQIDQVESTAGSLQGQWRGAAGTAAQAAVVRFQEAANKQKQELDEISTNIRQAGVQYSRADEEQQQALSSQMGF

T3: 结核分枝杆菌特异性重组蛋白38KD (Mycobacterium tuberculosis, UniProt P9WGU1 24-374)
T3 sequence (looked up): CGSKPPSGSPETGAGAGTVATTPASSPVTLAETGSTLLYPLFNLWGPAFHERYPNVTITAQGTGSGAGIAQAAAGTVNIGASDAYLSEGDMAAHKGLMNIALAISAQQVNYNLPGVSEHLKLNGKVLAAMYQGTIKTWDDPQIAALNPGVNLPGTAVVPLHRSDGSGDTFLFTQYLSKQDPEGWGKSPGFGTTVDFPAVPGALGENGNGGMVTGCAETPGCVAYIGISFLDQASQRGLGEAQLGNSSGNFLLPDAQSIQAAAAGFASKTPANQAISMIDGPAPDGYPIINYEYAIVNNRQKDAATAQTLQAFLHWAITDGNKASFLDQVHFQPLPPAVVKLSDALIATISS

T4: 结核分枝杆菌特异性重组蛋白MPT32 (Mycobacterium tuberculosis, UniProt P9WIR7 40-325)
T4 sequence (looked up): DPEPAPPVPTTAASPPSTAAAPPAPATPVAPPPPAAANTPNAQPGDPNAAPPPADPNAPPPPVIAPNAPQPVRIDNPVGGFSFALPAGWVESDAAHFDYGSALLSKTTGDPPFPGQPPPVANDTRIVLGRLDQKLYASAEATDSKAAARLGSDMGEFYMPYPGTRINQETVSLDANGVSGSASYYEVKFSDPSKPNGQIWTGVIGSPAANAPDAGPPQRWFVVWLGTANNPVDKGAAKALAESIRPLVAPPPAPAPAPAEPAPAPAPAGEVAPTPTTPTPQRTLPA

T5: 结核分枝杆菌特异性重组蛋白MPT64 (Mycobacterium tuberculosis, UniProt P9WIN9 24-228)
T5 sequence (looked up): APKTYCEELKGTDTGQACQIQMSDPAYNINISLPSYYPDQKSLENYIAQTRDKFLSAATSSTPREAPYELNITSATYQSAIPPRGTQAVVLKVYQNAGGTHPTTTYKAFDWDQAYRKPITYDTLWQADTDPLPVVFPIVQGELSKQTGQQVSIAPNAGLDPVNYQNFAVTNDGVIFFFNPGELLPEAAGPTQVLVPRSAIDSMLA


Key:
Test in all cases: indirect ELISA, recombinant protein coated on the plate
结核分枝杆菌特异性重组蛋白EspC = molecular target: T1, 结核分枝杆菌特异性重组蛋白EspC
结核分枝杆菌特异性重组蛋白CFP10 = molecular target: T2, 结核分枝杆菌特异性重组蛋白CFP10
结核分枝杆菌特异性重组蛋白Mtb81 = 结核分枝杆菌特异性重组蛋白Mtb81 (Mycobacterium tuberculosis, UniProt P9WK17 1-741)
Chain of 结核分枝杆菌特异性重组蛋白Mtb81 (P9WK17 whole entry): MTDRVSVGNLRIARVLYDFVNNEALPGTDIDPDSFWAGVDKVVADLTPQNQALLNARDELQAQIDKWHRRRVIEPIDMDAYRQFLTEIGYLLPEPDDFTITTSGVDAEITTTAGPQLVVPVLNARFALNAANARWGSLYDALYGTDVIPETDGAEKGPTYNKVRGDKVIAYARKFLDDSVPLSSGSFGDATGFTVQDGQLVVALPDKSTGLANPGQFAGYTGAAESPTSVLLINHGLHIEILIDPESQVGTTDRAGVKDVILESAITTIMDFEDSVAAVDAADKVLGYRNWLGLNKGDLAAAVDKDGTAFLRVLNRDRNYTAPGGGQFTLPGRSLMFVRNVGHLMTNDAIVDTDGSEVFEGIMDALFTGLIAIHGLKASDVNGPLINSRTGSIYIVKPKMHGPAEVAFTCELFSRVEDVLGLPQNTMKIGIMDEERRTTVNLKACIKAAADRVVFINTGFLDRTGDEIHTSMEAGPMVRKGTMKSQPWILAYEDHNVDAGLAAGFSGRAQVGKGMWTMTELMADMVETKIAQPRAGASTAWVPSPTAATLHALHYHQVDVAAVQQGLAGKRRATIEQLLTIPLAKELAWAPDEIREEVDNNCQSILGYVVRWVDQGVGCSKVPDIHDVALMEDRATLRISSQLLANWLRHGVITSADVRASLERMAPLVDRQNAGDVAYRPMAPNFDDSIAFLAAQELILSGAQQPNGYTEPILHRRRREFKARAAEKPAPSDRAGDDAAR

结核分枝杆菌特异性重组蛋白38KD = molecular target: T3, 结核分枝杆菌特异性重组蛋白38KD
结核分枝杆菌特异性重组蛋白MPT32 = molecular target: T4, 结核分枝杆菌特异性重组蛋白MPT32
结核分枝杆菌特异性重组蛋白MPT64 = molecular target: T5, 结核分枝杆菌特异性重组蛋白MPT64

Binder	binding result (结核分枝杆菌特异性重组蛋白EspC)	binding result (结核分枝杆菌特异性重组蛋白CFP10)	binding result (结核分枝杆菌特异性重组蛋白Mtb81)	binding result (结核分枝杆菌特异性重组蛋白38KD)	binding result (结核分枝杆菌特异性重组蛋白MPT32)	binding result (结核分枝杆菌特异性重组蛋白MPT64)
BJRbL20 (antibody, V domains shown, also called 兔抗LAM单克隆抗体BJRbL20; LAM抗体) VH: QSVEESGGRLVTPGGSLTLTCTVSGIDLSSYDMGWVRQAPGKGLEWIGNIWSNGFTDYASWVNGRFTISKSSSTKMDLKMTSLTTEDTATYFCARGSSGYVGDIWGPGTLVTVSS VL: DPVLTQTASSVSAAVGGTVTINCQASQSVYGNNELSWFQQKPGQPPKLLIYYASTLASGVPSRFKGSGSGTQFTLTISDLECDDAAIYYCQGGYLGNRAFGGGTEVVVKG	no binding (tested: protein coated at 5μg/ml)	no binding (tested: protein coated at 5μg/ml)	no binding (tested: protein coated at 5μg/ml)	no binding (tested: protein coated at 5μg/ml)	no binding (tested: protein coated at 5μg/ml)	no binding (tested: protein coated at 5μg/ml)
BJRbL52 (antibody, V domains shown, also called 兔抗LAM单克隆抗体BJRbL52; LAM抗体) VH: QSVEESGGRLVTPGTSLTLTCTVSGFSLSSYDMGWVRQAPGKGLEWIGNIWSNGFTDYASWVNGRFTISKSSSTKMDLKMTSLTTEDTATYFCARGSSGYVGDIWGPGTLVTVSS VL: DPVLTQTASSVSAAVGGTVTINCQASQSVYGNNELSWYQQKSGQPPKLLIYKASTLASGVPSRFKASGSGTQFTLTISDLECDDAAIYYCQGGYWGNRAFGGGTEVVVKG	no binding (tested: protein coated at 5μg/ml)	no binding (tested: protein coated at 5μg/ml)	no binding (tested: protein coated at 5μg/ml)	no binding (tested: protein coated at 5μg/ml)	no binding (tested: protein coated at 5μg/ml)	no binding (tested: protein coated at 5μg/ml)
BJRbL76 (antibody, V domains shown, also called 兔抗LAM单克隆抗体BJRbL76; LAM抗体) VH: QSVEESGGRLVTPGTPLTLTCTVSGFSLSTYAITWVRQAPGKGLEWIGYIWGGGNTDYASWAKGRFTISKTSTTVDLKITSPTIEDTATYFCGRNDLGYGSDIWGPGTLVTVSS VL: DVVMTQTPSSKSVPVGDTVTINCQASQSVWGNKWLSWYQQKPGQPPKLLIYQASKLASGVPSRFSGSGSGTQFTLTISDVVCDDAATYYCGGHGTGNNDNPLGGGTMVEIKG	no binding (tested: protein coated at 5μg/ml)	no binding (tested: protein coated at 5μg/ml)	no binding (tested: protein coated at 5μg/ml)	no binding (tested: protein coated at 5μg/ml)	no binding (tested: protein coated at 5μg/ml)	no binding (tested: protein coated at 5μg/ml)

Reference: CN111234026A (BEIJING CHEST HOSPITAL CAPITAL MEDICAL UNIV; BEIJING …, dated 2020)
